In patent US20220251619A1:

Target: porcine pancreatic elastase (Merck, Germany, Cat. No. 324682) (porcine) (UniProt P00772)
Assay: cell-based or functional assay

Chain of UniProt P00772 (P00772 27-266 limits assumed): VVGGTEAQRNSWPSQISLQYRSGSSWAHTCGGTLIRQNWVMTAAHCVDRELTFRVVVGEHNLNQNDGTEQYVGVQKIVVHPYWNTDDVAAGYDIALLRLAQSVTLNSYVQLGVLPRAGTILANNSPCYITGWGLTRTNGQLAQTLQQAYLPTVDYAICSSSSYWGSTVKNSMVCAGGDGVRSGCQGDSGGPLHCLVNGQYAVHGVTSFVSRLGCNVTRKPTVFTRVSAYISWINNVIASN

Row | Substance | % active AAT relative to plasma-derived AAT (elastase inhibition, SAPNA hydrolysis at 410 nm), Assay 1 [%] | % active AAT relative to plasma-derived AAT (elastase inhibition, SAPNA hydrolysis at 410 nm), Assay 2 [%] | Average % Activity (elastase inhibition, SAPNA hydrolysis at 410 nm) [%]
1 | recombinant alpha-1 antitrypsin produced in CHO-DG44 cells, untreated (from UniProt P01009 25-418) | 90.1 | 88.6 | 89.3
2 | remodelled rAAT (rAAT incubated with beta1,4-galactosyltransferase, alpha2,3 sialyltransferase from Pasteurella multocida and alpha2,6 sialyltransferase from Photobacterium damselae, then purified) (from UniProt P01009 25-418) | 97.1 | 93 | 95.4
